From patent US20190338009A1 (ZEALAND PHARMA A S, published 2019)
Square brackets hold non-standard residues; d marks the D form. Aib = CC(C)(N)C(=O)O

T1: human GLP-2 receptor (hGLP2-R) (human, UniProt O95838 1-553)
T1 sequence (looked up): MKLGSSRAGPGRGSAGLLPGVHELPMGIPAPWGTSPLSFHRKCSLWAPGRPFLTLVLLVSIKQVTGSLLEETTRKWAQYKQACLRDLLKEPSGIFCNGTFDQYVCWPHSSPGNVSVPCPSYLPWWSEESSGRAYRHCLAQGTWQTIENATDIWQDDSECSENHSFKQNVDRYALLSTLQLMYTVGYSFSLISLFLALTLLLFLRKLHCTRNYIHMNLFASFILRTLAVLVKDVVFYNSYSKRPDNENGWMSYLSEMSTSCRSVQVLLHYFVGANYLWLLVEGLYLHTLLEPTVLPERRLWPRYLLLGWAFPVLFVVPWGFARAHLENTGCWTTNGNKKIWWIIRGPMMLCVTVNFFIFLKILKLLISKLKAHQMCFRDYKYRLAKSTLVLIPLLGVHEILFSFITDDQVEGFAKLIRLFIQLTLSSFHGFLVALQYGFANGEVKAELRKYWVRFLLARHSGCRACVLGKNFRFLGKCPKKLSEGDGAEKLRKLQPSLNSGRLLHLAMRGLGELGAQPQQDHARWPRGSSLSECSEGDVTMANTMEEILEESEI

B1: Compound 6 (peptide)
peptide: H-H[Aib]EGSFTSELATILDEQAARDFIAWLIHHKITD-OH
SMILES: CC[C@H](C)[C@H](NC(=O)[C@H](Cc1ccccc1)NC(=O)[C@H](CC(=O)O)NC(=O)[C@H](CCCNC(=N)N)NC(=O)[C@H](C)NC(=O)[C@H](C)NC(=O)[C@H](CCC(N)=O)NC(=O)[C@H](CCC(=O)O)NC(=O)[C@H](CC(=O)O)NC(=O)[C@H](CC(C)C)NC(=O)[C@@H](NC(=O)[C@@H](NC(=O)[C@H](C)NC(=O)[C@H](CC(C)C)NC(=O)[C@H](CCC(=O)O)NC(=O)[C@H](CO)NC(=O)[C@@H](NC(=O)[C@H](Cc1ccccc1)NC(=O)[C@H](CO)NC(=O)CNC(=O)[C@H](CCC(=O)O)NC(=O)C(C)(C)NC(=O)[C@@H](N)Cc1c[nH]cn1)[C@@H](C)O)[C@@H](C)O)[C@@H](C)CC)C(=O)N[C@@H](C)C(=O)N[C@@H](Cc1c[nH]c2ccccc12)C(=O)N[C@@H](CC(C)C)C(=O)N[C@H](C(=O)N[C@@H](Cc1c[nH]cn1)C(=O)N[C@@H](Cc1c[nH]cn1)C(=O)N[C@@H](CCCCN)C(=O)N[C@H](C(=O)N[C@H](C(=O)N[C@@H](CC(=O)O)C(=O)O)[C@@H](C)O)[C@@H](C)CC)[C@@H](C)CC
B2: Compound 5 (peptide)
peptide: H-H[Aib]EGTFTSELATILDEQAARDFIAWLIEHKITD-OH
SMILES: CC[C@H](C)[C@H](NC(=O)[C@H](Cc1ccccc1)NC(=O)[C@H](CC(=O)O)NC(=O)[C@H](CCCNC(=N)N)NC(=O)[C@H](C)NC(=O)[C@H](C)NC(=O)[C@H](CCC(N)=O)NC(=O)[C@H](CCC(=O)O)NC(=O)[C@H](CC(=O)O)NC(=O)[C@H](CC(C)C)NC(=O)[C@@H](NC(=O)[C@@H](NC(=O)[C@H](C)NC(=O)[C@H](CC(C)C)NC(=O)[C@H](CCC(=O)O)NC(=O)[C@H](CO)NC(=O)[C@@H](NC(=O)[C@H](Cc1ccccc1)NC(=O)[C@@H](NC(=O)CNC(=O)[C@H](CCC(=O)O)NC(=O)C(C)(C)NC(=O)[C@@H](N)Cc1c[nH]cn1)[C@@H](C)O)[C@@H](C)O)[C@@H](C)O)[C@@H](C)CC)C(=O)N[C@@H](C)C(=O)N[C@@H](Cc1c[nH]c2ccccc12)C(=O)N[C@@H](CC(C)C)C(=O)N[C@H](C(=O)N[C@@H](CCC(=O)O)C(=O)N[C@@H](Cc1c[nH]cn1)C(=O)N[C@@H](CCCCN)C(=O)N[C@H](C(=O)N[C@H](C(=O)N[C@@H](CC(=O)O)C(=O)O)[C@@H](C)O)[C@@H](C)CC)[C@@H](C)CC
B3: Compound 4 (peptide)
peptide: H-H[Aib]EGSFTSELATILDEQAARDFIAWLIEHKITD-OH
SMILES: CC[C@H](C)[C@H](NC(=O)[C@H](Cc1ccccc1)NC(=O)[C@H](CC(=O)O)NC(=O)[C@H](CCCNC(=N)N)NC(=O)[C@H](C)NC(=O)[C@H](C)NC(=O)[C@H](CCC(N)=O)NC(=O)[C@H](CCC(=O)O)NC(=O)[C@H](CC(=O)O)NC(=O)[C@H](CC(C)C)NC(=O)[C@@H](NC(=O)[C@@H](NC(=O)[C@H](C)NC(=O)[C@H](CC(C)C)NC(=O)[C@H](CCC(=O)O)NC(=O)[C@H](CO)NC(=O)[C@@H](NC(=O)[C@H](Cc1ccccc1)NC(=O)[C@H](CO)NC(=O)CNC(=O)[C@H](CCC(=O)O)NC(=O)C(C)(C)NC(=O)[C@@H](N)Cc1c[nH]cn1)[C@@H](C)O)[C@@H](C)O)[C@@H](C)CC)C(=O)N[C@@H](C)C(=O)N[C@@H](Cc1c[nH]c2ccccc12)C(=O)N[C@@H](CC(C)C)C(=O)N[C@H](C(=O)N[C@@H](CCC(=O)O)C(=O)N[C@@H](Cc1c[nH]cn1)C(=O)N[C@@H](CCCCN)C(=O)N[C@H](C(=O)N[C@H](C(=O)N[C@@H](CC(=O)O)C(=O)O)[C@@H](C)O)[C@@H](C)CC)[C@@H](C)CC
B4: Compound 8 (peptide)
peptide: H-H[Aib]EGSFTSELATILDEQAARDFIAWLILHKITD-OH
SMILES: CC[C@H](C)[C@H](NC(=O)[C@H](Cc1ccccc1)NC(=O)[C@H](CC(=O)O)NC(=O)[C@H](CCCNC(=N)N)NC(=O)[C@H](C)NC(=O)[C@H](C)NC(=O)[C@H](CCC(N)=O)NC(=O)[C@H](CCC(=O)O)NC(=O)[C@H](CC(=O)O)NC(=O)[C@H](CC(C)C)NC(=O)[C@@H](NC(=O)[C@@H](NC(=O)[C@H](C)NC(=O)[C@H](CC(C)C)NC(=O)[C@H](CCC(=O)O)NC(=O)[C@H](CO)NC(=O)[C@@H](NC(=O)[C@H](Cc1ccccc1)NC(=O)[C@H](CO)NC(=O)CNC(=O)[C@H](CCC(=O)O)NC(=O)C(C)(C)NC(=O)[C@@H](N)Cc1c[nH]cn1)[C@@H](C)O)[C@@H](C)O)[C@@H](C)CC)C(=O)N[C@@H](C)C(=O)N[C@@H](Cc1c[nH]c2ccccc12)C(=O)N[C@@H](CC(C)C)C(=O)N[C@H](C(=O)N[C@@H](CC(C)C)C(=O)N[C@@H](Cc1c[nH]cn1)C(=O)N[C@@H](CCCCN)C(=O)N[C@H](C(=O)N[C@H](C(=O)N[C@@H](CC(=O)O)C(=O)O)[C@@H](C)O)[C@@H](C)CC)[C@@H](C)CC
B5: Compound 7 (peptide)
peptide: H-H[Aib]EGSFTSELATILDEQAARDFIAWLIYHKITD-OH
SMILES: CC[C@H](C)[C@H](NC(=O)[C@H](Cc1ccccc1)NC(=O)[C@H](CC(=O)O)NC(=O)[C@H](CCCNC(=N)N)NC(=O)[C@H](C)NC(=O)[C@H](C)NC(=O)[C@H](CCC(N)=O)NC(=O)[C@H](CCC(=O)O)NC(=O)[C@H](CC(=O)O)NC(=O)[C@H](CC(C)C)NC(=O)[C@@H](NC(=O)[C@@H](NC(=O)[C@H](C)NC(=O)[C@H](CC(C)C)NC(=O)[C@H](CCC(=O)O)NC(=O)[C@H](CO)NC(=O)[C@@H](NC(=O)[C@H](Cc1ccccc1)NC(=O)[C@H](CO)NC(=O)CNC(=O)[C@H](CCC(=O)O)NC(=O)C(C)(C)NC(=O)[C@@H](N)Cc1c[nH]cn1)[C@@H](C)O)[C@@H](C)O)[C@@H](C)CC)C(=O)N[C@@H](C)C(=O)N[C@@H](Cc1c[nH]c2ccccc12)C(=O)N[C@@H](CC(C)C)C(=O)N[C@H](C(=O)N[C@@H](Cc1ccc(O)cc1)C(=O)N[C@@H](Cc1c[nH]cn1)C(=O)N[C@@H](CCCCN)C(=O)N[C@H](C(=O)N[C@H](C(=O)N[C@@H](CC(=O)O)C(=O)O)[C@@H](C)O)[C@@H](C)CC)[C@@H](C)CC
B6: Compound 3 (peptide)
peptide: H-H[Aib]EGTFTSELATILDEQAARDFIAWLIAHKITD-OH
SMILES: CC[C@H](C)[C@H](NC(=O)[C@H](CC(C)C)NC(=O)[C@H](Cc1c[nH]c2ccccc12)NC(=O)[C@H](C)NC(=O)[C@@H](NC(=O)[C@H](Cc1ccccc1)NC(=O)[C@H](CC(=O)O)NC(=O)[C@H](CCCNC(=N)N)NC(=O)[C@H](C)NC(=O)[C@H](C)NC(=O)[C@H](CCC(N)=O)NC(=O)[C@H](CCC(=O)O)NC(=O)[C@H](CC(=O)O)NC(=O)[C@H](CC(C)C)NC(=O)[C@@H](NC(=O)[C@@H](NC(=O)[C@H](C)NC(=O)[C@H](CC(C)C)NC(=O)[C@H](CCC(=O)O)NC(=O)[C@H](CO)NC(=O)[C@@H](NC(=O)[C@H](Cc1ccccc1)NC(=O)[C@@H](NC(=O)CNC(=O)[C@H](CCC(=O)O)NC(=O)C(C)(C)NC(=O)[C@@H](N)Cc1c[nH]cn1)[C@@H](C)O)[C@@H](C)O)[C@@H](C)O)[C@@H](C)CC)[C@@H](C)CC)C(=O)N[C@@H](C)C(=O)N[C@@H](Cc1c[nH]cn1)C(=O)N[C@@H](CCCCN)C(=O)N[C@H](C(=O)N[C@H](C(=O)N[C@@H](CC(=O)O)C(=O)O)[C@@H](C)O)[C@@H](C)CC
B7: Compound 9 (peptide)
peptide: H-H[Aib]EGTFTDELATILDEQAARDFIAWLIAHKITD-OH
SMILES: CC[C@H](C)[C@H](NC(=O)[C@H](CC(C)C)NC(=O)[C@H](Cc1c[nH]c2ccccc12)NC(=O)[C@H](C)NC(=O)[C@@H](NC(=O)[C@H](Cc1ccccc1)NC(=O)[C@H](CC(=O)O)NC(=O)[C@H](CCCNC(=N)N)NC(=O)[C@H](C)NC(=O)[C@H](C)NC(=O)[C@H](CCC(N)=O)NC(=O)[C@H](CCC(=O)O)NC(=O)[C@H](CC(=O)O)NC(=O)[C@H](CC(C)C)NC(=O)[C@@H](NC(=O)[C@@H](NC(=O)[C@H](C)NC(=O)[C@H](CC(C)C)NC(=O)[C@H](CCC(=O)O)NC(=O)[C@H](CC(=O)O)NC(=O)[C@@H](NC(=O)[C@H](Cc1ccccc1)NC(=O)[C@@H](NC(=O)CNC(=O)[C@H](CCC(=O)O)NC(=O)C(C)(C)NC(=O)[C@@H](N)Cc1c[nH]cn1)[C@@H](C)O)[C@@H](C)O)[C@@H](C)O)[C@@H](C)CC)[C@@H](C)CC)C(=O)N[C@@H](C)C(=O)N[C@@H](Cc1c[nH]cn1)C(=O)N[C@@H](CCCCN)C(=O)N[C@H](C(=O)N[C@H](C(=O)N[C@@H](CC(=O)O)C(=O)O)[C@@H](C)O)[C@@H](C)CC

Target: T1, human GLP-2 receptor (hGLP2-R)
Experiment: cell-based or functional assay

EC50 GLP-2 (nM); cAMP AlphaScreen, HEK293 cells expressing human GLP-2R	Binder
0.047 nM	B1
0.067 nM	B2
0.044 nM	B3
0.084 nM	B4
0.11 nM	B5
0.036 nM	B6
0.041 nM	B7

Target: human glucagon-like peptide 1 receptor (GLP-1R) (human, UniProt P43220 24-463)
Experiment: cell-based or functional assay

EC50 GLP-1 (nM); cAMP AlphaScreen, HEK293 cells expressing human GLP-1R	Binder
0.014 nM	B1
39 nM	HGDGSFSDEMNTILDNLAARDFINWLIQTKITD [Teduglutide]
0.0098 nM	B2
0.015 nM	B3
0.021 nM	B4
0.017 nM	B5
0.0074 nM	B6
0.007 nM	B7
